Source: patent US20070009938

How the values were obtained:
Assay in all cases: EMSA
[1] = test system: wt bZIP (GCN4 basic region - C/EBP leucine zipper hybrid), expressed (artificial (yeast GCN4 / C/EBP))
[2] = test system: wt bZIP (GCN4 basic region - C/EBP leucine zipper hybrid), synthetic (artificial (yeast GCN4 / C/EBP))
[3] = target: 4A alanine mutant bZIP (GCN4 basic region - C/EBP zipper) (artificial (yeast GCN4 / C/EBP)) (UniProt P03069); details: group statement
[4] = target: 18A alanine mutant bZIP (GCN4 basic region - C/EBP zipper) (artificial (yeast GCN4 / C/EBP)) (UniProt P03069); details: group statement
[5] = target: 11A alanine mutant bZIP (GCN4 basic region - C/EBP zipper) (artificial (yeast GCN4 / C/EBP)) (UniProt P03069); details: group statement
[6] = higher-order bandshifts excluded
[7] = also DNase I footprinting (p65)

TGCAGGAATTGCTGAAGGTT (double strand) [C/EBP half site]
Kd ([1]; saturation not achieved): > 1500 nM | Kd ([2]; saturation not achieved): > 5000 nM

TGCAGGAATGACTCATTGAAGGTT (double strand) [AP-1]
Kd ([1]; higher-order bandshifts excluded, FIG. 6 legend gives 568 nM for wt bZIP with AP-1 in another experiment (TKMC buffer)): 4.8 nM | Kd ([2]; apparent monomeric Kd, pH 7.5): 13 nM

TGCAGGAATCACGTGATGAAGGTT (double strand) [Arnt E-box]
Kd ([2]; saturation not achieved): 570 nM | binding signal (fold weaker than AP-1) ([3]; both E-box sites): 10 | binding signal (fold weaker than AP-1) ([4]; both E-box sites): 10 | binding signal (fold weaker than AP-1) ([5]; both E-box sites): 10

TGCAGGAATTGCGCAATGAAGGTT (double strand) [C/EBP]
Kd [1, 6]: 29 nM | Kd ([2]; apparent monomeric Kd, pH 7.5): 120 nM | binding signal (fold weaker than AP-1) [3, 7]: 3 | binding signal (fold weaker than AP-1) [4, 7]: 3 | binding signal (fold weaker than AP-1) [5, 7]: 3

TGCAGGAATGACGTCATGAAGGTT (double strand) [CRE]
Kd ([2]; apparent monomeric Kd, pH 7.5): 12 nM

TGCAGGAAGACTAACCTGAAGGTT (double strand) [Partial site / NON2]
Kd ([2]; apparent monomeric Kd, pH 7.5): 280 nM

TGCAGGAATCACTGAAGGTT (double strand) [Arnt E-box half site]
Kd ([2]; saturation not achieved): > 4000 nM

TGCAGGAACCACGTGGTGAAGGTT (double strand) [Max E-box]
Kd ([2]; saturation not achieved): 840 nM | binding signal (fold weaker than AP-1) ([3]; both E-box sites): 10 | binding signal (fold weaker than AP-1) ([4]; both E-box sites): 10 | binding signal (fold weaker than AP-1) ([5]; both E-box sites): 10

TGCAGGAATTGCGTGATGAAGGTT (double strand) [XRE1]
Kd ([2]; apparent monomeric Kd, pH 7.5): 240 nM | binding signal (fold weaker than AP-1) [3, 7]: 7 | binding signal (fold weaker than AP-1) [4, 7]: 7 | binding signal (fold weaker than AP-1) [5, 7]: 7

TGCAGGAAGCACGTAGTGAAGGTT (double strand) [HRE]
Kd ([2]; saturation not achieved): 1400 nM | binding signal (fold weaker than AP-1) [3, 7]: 7 | binding signal (fold weaker than AP-1) [4, 7]: 7 | binding signal (fold weaker than AP-1) [5, 7]: 7

GATCTGGATGACTCATTTTTTTTT (double strand) [WT AP-1 (his3 flanks)]
Kd ([2]; apparent monomeric Kd, 2 mM MgCl2, 1 mM CaCl2, pH 7.5, 200 mM guanidine HCl): 13 nM

TGCAGGAATGACTGAAGGTT (double strand) [AP-1 half site]
Kd [1, 6]: 23 nM | Kd ([2]; apparent monomeric Kd, pH 7.5): 84 nM
